# Laboratory results published in article PMC9022596, “Convergent Evolution of Antibiotic Tolerance in Patients with Persistent Methicillin-Resistant Staphylococcus aureus Bacteremia” (Infection and Immunity, 2022).
# What was measured:
# [1] = system: O=C(O)CC(=O)C(=O)O; assay: purified protein; conditions: AcCoA fixed at 0.3 mM, 0.1 mM DTNB, 100 mM Tris-HCl pH 8.0, room temperature
# [2] = system: CC(=O)SCCNC(=O)CCNC(=O)[C@H](O)C(C)(C)COP(=O)(O)OP(=O)(O)OC[C@H]1O[C@@H](n2cnc3c(N)ncnc32)[C@H](O)[C@@H]1OP(=O)(O)O; assay: purified protein; conditions: OAA fixed at 0.5 mM, 0.1 mM DTNB, 100 mM Tris-HCl pH 8.0, room temperature
substance,measurement,setting,value
"S. aureus citrate synthase (CS, citZ) (Staphylococcus aureus subsp. aureus USA300)",Km,[1],0.03 (95% CI 0.02 to 0.04) mM
same,kcat,[1],30 (95% CI 28 to 32) s-1
same,Km,[2],0.29 (95% CI 0.25 to 0.32) mM
same,kcat,[2],41 (95% CI 39 to 43) s-1
